Experimental findings from IntAct's records for PubMed 15171681 are described below.

The chains are these.
B1: Protein S100-A1 (Homo sapiens), P23297 (parent)
chain: MGSELETAMETLINVFHAHSGKEGDKYKLSKKELKELLQTELSGFLDAQKDVDAVDKVMKELDENGDGEVDFQEYVVLVAALTVACNNFFWENS
partner: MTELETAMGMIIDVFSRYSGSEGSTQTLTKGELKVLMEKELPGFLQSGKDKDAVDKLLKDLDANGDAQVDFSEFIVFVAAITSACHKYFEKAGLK
B2: Protein S100-P (Homo sapiens), P25815 (parent)
chain: B1 partner

One assay covers variants of B1. Conditions: with S100P.
In the case of L12H;F16A;F72L, the “effect of a mutation on the interaction” value was “disrupting interaction”.
For F16A, the “effect of a mutation on the interaction” value is listed as “disrupting interaction”.

Variants of B2 are the subject of a further assay. Conditions: with S100A1, P23297.
As for I11A;I12A, the “effect of a mutation on the interaction” value is on record as “disrupting interaction”.
On the same count and under the same terms, the value for I75G was “disrupting interaction”; that for F71A was “disrupting interaction”.
The same measure, in the same setting: the value for F15A was “disrupting interaction”; that for I75G;V76G was “decreasing interaction”.
The same measure, in the same setting: the value for F74G was “disrupting interaction”; that for F74V was “disrupting interaction”.
